The numbers were not newly measured in patent US12090208B2, “Peptide drug improvement using vitamin B12 and Haptocorrin binding substrate conjugates” (SYRACUSE UNIVERSITY, priority 2017, dated 2024), which cites them from elsewhere.

For the data set the following is noted: in vivo.

B1: haptocorrin: serum B12 binding and transport protein (protein, UniProt P20061 24-433, looked up)
Transcobalamin-1: EICEVSEENYIRLKPLLNTMIQSNYNRGTSAVNVVLSLKLVGIQIQTLMQKMIQQIKYNVKSRLSDVSSGELALIILALGVCRNAEENLIYDYHLIDKLENKFQAEIENMEAHNGTPLTNYYQLSLDVLALCLFNGNYSTAEVVNHFTPENKNYYFGSQFSVDTGAMAVLALTCVKKSLINGQIKADEGSLKNISIYTKSLVEKILSEKKENGLIGNTFSTGEAMQALFVSSDYYNENDWNCQQTLNTVLTEISQGAFSNPNAAAQVLPALMGKTFLDINKDSSCVSASGNFNISADEPITVTPPDSQSYISVNYSVRINETYFTNVTVLNGSVFLSVMEKAQKMNDTIFGFTMEERSWGPYITCIQGLCANNNDRTYWELLSGGEPLSQGAGSYVVRNGENLEVRWSKY
Consider B1, for which the half-life in blood result is reported as “approximately 10 hours”.
